For experiment [1], the target named is hANG1-Fc (human, UniProt Q15389 16-498, limits assumed). The experiment in a line: ELISA, 2μg/mL hANG1-Fc coated, anti-human Kappa HRP detection. A general note: In an ELISA, binding on a coated surface is turned into a signal by an enzyme label.
The target of experiment [2] is T1, 重组蛋白hANG2-His (human, UniProt O15123 19-496).
T1 construct: Made in Expi293 cells; not shown: C-terminal His tag
T1 sequence: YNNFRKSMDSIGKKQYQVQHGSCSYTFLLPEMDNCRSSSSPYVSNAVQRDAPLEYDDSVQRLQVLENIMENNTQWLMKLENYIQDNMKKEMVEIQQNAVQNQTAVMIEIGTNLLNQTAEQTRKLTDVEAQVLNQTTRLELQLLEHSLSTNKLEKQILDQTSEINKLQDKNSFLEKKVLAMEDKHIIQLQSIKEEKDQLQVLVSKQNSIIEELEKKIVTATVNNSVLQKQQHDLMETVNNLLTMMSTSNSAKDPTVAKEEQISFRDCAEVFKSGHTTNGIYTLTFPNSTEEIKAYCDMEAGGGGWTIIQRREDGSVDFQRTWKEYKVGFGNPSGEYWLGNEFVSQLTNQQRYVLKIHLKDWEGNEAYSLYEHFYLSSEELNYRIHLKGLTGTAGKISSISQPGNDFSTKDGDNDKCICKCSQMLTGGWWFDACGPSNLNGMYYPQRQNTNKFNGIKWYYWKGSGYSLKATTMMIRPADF
As to the kind of experiment: ELISA, hANG2-His coated, anti-human-IgG-Fc-HRP detection.

For experiment [3], the target named is T2, 生物素标记的hANG2-Fc蛋白 (human, biotin-labelled (sites not given)).
T2 construct: also called biotin-hANG2-Fc
The experiment in a line: FACS blocking of biotin-hANG2-Fc binding to huTie2-HEK293 cells.

“And” between values parts separate entries of the source, which are not always exact repeats. Equal values may be shown once.

By IC50 is commonly meant the concentration at which inhibition is half-maximal. Higher therefore signals weaker potency in that assay.

hANG1-Fc, sequence (Q15389 other isoform, or with tags, fused parts or gaps limits assumed): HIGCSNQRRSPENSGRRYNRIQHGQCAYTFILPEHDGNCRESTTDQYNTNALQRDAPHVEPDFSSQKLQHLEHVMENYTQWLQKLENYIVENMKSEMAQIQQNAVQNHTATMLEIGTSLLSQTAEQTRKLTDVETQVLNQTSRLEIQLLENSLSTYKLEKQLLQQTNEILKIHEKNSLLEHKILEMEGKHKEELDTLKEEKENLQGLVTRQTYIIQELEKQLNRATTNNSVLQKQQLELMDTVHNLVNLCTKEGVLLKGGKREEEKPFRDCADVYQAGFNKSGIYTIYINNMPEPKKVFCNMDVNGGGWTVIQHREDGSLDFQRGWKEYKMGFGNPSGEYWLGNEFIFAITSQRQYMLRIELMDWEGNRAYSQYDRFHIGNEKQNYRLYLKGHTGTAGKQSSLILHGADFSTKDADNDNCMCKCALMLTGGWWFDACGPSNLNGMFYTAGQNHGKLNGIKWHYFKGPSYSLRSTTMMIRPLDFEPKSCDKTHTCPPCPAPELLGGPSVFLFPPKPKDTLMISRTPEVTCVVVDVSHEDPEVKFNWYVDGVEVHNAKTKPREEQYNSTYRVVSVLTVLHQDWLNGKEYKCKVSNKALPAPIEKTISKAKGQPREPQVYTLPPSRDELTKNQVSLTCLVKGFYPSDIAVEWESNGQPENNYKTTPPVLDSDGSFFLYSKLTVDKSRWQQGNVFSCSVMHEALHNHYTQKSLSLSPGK

B1: 全人源抗体78A74-7 (antibody, human IgG1, kappa, V domains shown)
VH: QVQLVESGGGLVKPGGSLRLSCAASGFTFSSYSMNWVRQAPGKGLEWVAVISYDGSNKYYADSVKGRFTISRDNSKNTLYLQMNSLRAEDTAVYYCAKATLDGYTAGYYYGMDVWGQGTTVTVSS
VL: EIVLTQSPATLSLSPGERATLSCRASQSVSSYLAWYQQKPGQAPRLLIYDASNRATGIPARFSGSGSGTDFTLTISSLEPEDFAVYYCQLMSNWPPEWTFGQGTKVEIKR
notes: Fully human anti-ANG2 antibody in IgG1 format
As to B1, the binding result in experiment [1] is on record as “no binding”; in experiment [2], “binds”. Further, in experiment [3], the IC50 was 0.226 nM and 0.44 nM.

B2: 全人源抗体17 (antibody, human IgG1, kappa, V domains shown)
VH: EVQLVESGGGVVKPGGSLRLSCAASGFTFNKYTINWVRQTPGKGLELVADISSGGDYVNYADSVKGRFTISRDNAKDSVYLLMNGLRAEDTAVYYCARDALTYSNNWLDSWGQGTLVTVSS
VL: DIQLTQSPSFLSASVGDRVTITCRASQGISSYLAWYQQKPGKAPKLLIYAASTLQSGVPSRFSGGGYGTDFTLTISSLQPEDFATYYCQQFESYPLTFGGGTRLEIKR
notes: as for B1
B2: the binding result in experiment [1] is listed as “no binding”; in experiment [2] it was “binds”.
